Experimental data as given in paper doi:10.1101/2025.05.14.653996.

Target: actin filament, unlabelled segment of recombinant cytoplasmic β-actin (UniProt P60709)
Test: TIRF microscopy of single actin filaments under flow in a microfluidic chamber

| cluster detachment, fold faster at 50 mM KCl than at 100 mM KCl | fold decrease of the median detachment time from 0.01 to 0.04 pN per Tpm dimer | cluster detachment, fold slower than sfGFP-Tpm1.6 | Substance |
| --- | --- | --- | --- |
| 36 fold | > 100 fold | – | sfGFP-Tpm1.6 (natural protein) |
| – | – | 5.5 fold | sfGFP-Tpm1.7 (natural protein) |
